# Test results reported in patent US20120277286A1, “COMPOSITIONS AND METHODS FOR THE TREATMENT OR PREVENTION OF MITOCHONDRIAL DISEASES” (The Government of the USA, as represented by the Secretary, …, priority 2009, published 2012).
# B1: YFP-Parkin: YFP-tagged Parkin E3 ligase expressed from a transfected vector (protein, UniProt O60260 1-465, looked up)
# E3 ubiquitin-protein ligase …: MIVFVRFNSSHGFPVEVDSDTSIFQLKEVVAKRQGVPADQLRVIFAGKELRNDWTVQNCDLDQQSIVHIVQRPWRKGQEMNATGGDDPRNAAGGCEREPQSLTRVDLSSSVLPGDSVGLAVILHTDSRKDSPPAGSPAGRSIYNSFYVYCKGPCQRVQPGKLRVQCSTCRQATLTLTQGPSCWDDVLIPNRMSGECQSPHCPGTSAEFFFKCGAHPTSDKETSVALHLIATNSRNITCITCTDVRSPVLVFQCNSRHVICLDCFHLYCVTRLNDRQFVHDPQLGYSLPCVAGCPNSLIKELHHFRILGEEQYNRYQQYGAEECVLQMGGVLCPRPGCGAGLLPEPDQRKVTCEGGNGLGCGFAFCRECKEAYHEGECSAVFEASGTTTQAYRVDERAAEQARWEAASKETIKKTTKPCPRCHVPVEKNGGCMHMKCPQPQCRLEWCWNCGCEWNRVCMGDHWFDV
# modifications: YFP fusion
# notes: YFP-tagged Parkin E3 ligase expressed from a transfected vector
# Experiments:
# COXICA65 cybrid cells = test: COXI immunostaining of cybrid cells; type: cell-based, human; details: Parkin-enriched cybrid cells, 67 days without selection, cells without detectable YFP-Parkin
# Description: Cells for fluorescence microscopy were transfected with Fugene 6 (Roche). Cells were fixed with 4% paraformaldehyde (EMS) in PBS, treated with 0.15% of TritonX-100 and blocked with 10% BSA. Cells were incubated with rabbit anti-Tom20 (1:1000) (Santa Cruz), mouse anti-FLAG (Invitrogen) or mouse anti-COXI (Invitrogen) for 2 hs, washed with 10% BSA for 3 times, incubated with AlexaFluor Goat anti-rabbit or anti-mouse IgG (1:500)(Invitrogen) for 1 h and washed with PBS for 10 minutes 2 times. The samples were stored in PBS and imaged on a Zeiss LSM510 microscope (63×/1.4 Oil DIC Plan Apo objective, 40×/1.3 Oil Plan Neo-Fluar objective).
# [1] = test system: M17 human neuroblastoma cells; test: Parkin-induced mitophagy in M17 cells; type: cell-based; details: control shRNA (Parkin line) or PINK1 shRNA, 10 μM CCCP, 24 hours
# Description: HeLa YFP-Parkin, PINK1+/+ SV40 transformed MEFs cells, PINK1−/− SV40 transformed MEF, M17 neuroblastoma control shRNA, M17 neuroblastoma PINK1, and Mfn1/2−/− MEF cell lines have been described previously (Narendra (2008) J Cell Biol 183: 795-803). PINK1+/+ and PINK1−/− primary MEFs were isolated from embryos using a standard protocol (Gautier (2008) Proc Natl Acad Sci USA 105: 11364-11369). Parkin+/+ and Parkin−/− transformed MEFs were created by isolation of primary cells from embryos of B6.129S4-Park2tm1Shn/J mice (Jackson Labs), using a standard protocol (Gautier (2008) Proc Natl Acad Sci USA 105: 11364-11369), followed by retroviral transduction of SV40 (Applied Biological Materials, Inc.). YFP-Parkin, YFPParkin mutants, mCherry-Parkin, PINK1-YFP, PINK1 KD-YFP, PINK1 Δ1-110-YFP, and Opa3-PINK1 Δ1-110-YFP are in C1 or N1 Clontech vectors. PINK1WT-V5, PINK1 KD-V5, and PINK1 Δ1-156-V5 are in pDest40 vector (Invitrogen). PINK1 patient mutations are in pLenti-V5 vector (Invitrogen). PINK1-myc is in a pCMBTNT vector (Promega).
# Confocal microscopy of fixed samples, scoring of Parkin recruitment and Parkininduced mitophagy, and live cell imaging were performed as described previously (Narendra (2008) J Cell Biol 183: 795-803). Experiments in Mfn1/2 null cells were performed as described previously with minor modifications. […]
molecule,measurement,setting,value
B1,COXI completely negative cells,COXICA65 cybrid cells,27%
same,COXI positive cells,COXICA65 cybrid cells,Approximately 73%
same,cells with complete loss of mitochondria,[1],27.1±8.6%
